In patent US12319931B2, “Oncolytic virus expressing interferon and application therefor” (SHANGHAI YUANSONG BIOTECHNOLOGY CO. LTD., priority 2018, dated 2025) one finds tumor-suppressive effect data, which are given here for 1 molecule.

The assay relates to HCC1806 xenograft tumor. Briefly: HCC1806 xenograft tumor model in nude mice. The class given is in vivo. To be noted: virus intratumoral 1.5×10^10 VP/time/mouse, rIFN intraperitoneal 20 μg/time/mouse, 5 times. How it is done: When the experimental nude mice reached 5 weeks old, they were injected with 2×10^6 HCC1806 tumor cells for tumor formation. […] The tumor size was observed and measured every 3 days after administration of oncolytic virus.
Specifically, the triple negative breast cancer cell line HCC1806 xenograft tumor of nude mice with less immune cell infiltration were used for in vivo drug efficacy testing. […] The tumor size was measured every three days.

B1: recombinant interferon protein: consensus interferon rIFN protein; synthetic interferon with roughly the average sequence of human interferon-α subtypes (protein)
chain 1: MALSFSLLMAVLVLSYKSICSLGMCDLPQTHSLGNRRALILLAQMRRISPFSCLKDRHDFGFPQEEFDGNQFQKAQAISVLHEMIQQTFNLFSTKDSSAAWDESLLEKFYTELYQQLNDLEACVIQEVGVEETPLMNVDSILAVKKYFQRITLYLTEKKYSPCAWEVVRAEIMRSFSLSTNLQERLRRKE
chain 2: B1 chain 1
chain 3: B1 chain 1
modifications: consensus interferon coding sequence IFN-1; consensus interferon coding sequence IFN-2; consensus interferon coding sequence IFN-3
As for B1, the tumor-suppressive effect result was “no obvious tumor-suppressive effect”.
